Laboratory results published in US20120021995A1 (published 2012).

T1: recombinant human TRAIL R1 (DR4)/Fc chimera (human, UniProt O00220 24-239)
T1 construct: bought (R&D Systems); not shown: Fc of the bought chimera (R&D Systems)
T1 sequence: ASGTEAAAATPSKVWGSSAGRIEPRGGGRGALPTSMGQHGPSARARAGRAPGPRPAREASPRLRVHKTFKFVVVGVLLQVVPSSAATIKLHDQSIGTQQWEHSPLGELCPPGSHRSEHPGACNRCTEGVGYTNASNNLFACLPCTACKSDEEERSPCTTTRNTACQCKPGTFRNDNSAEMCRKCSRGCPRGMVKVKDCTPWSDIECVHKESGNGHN

T2: DR4 (TRAIL-R1) on cancer cells (human, UniProt O00220 24-468)
T2 sequence: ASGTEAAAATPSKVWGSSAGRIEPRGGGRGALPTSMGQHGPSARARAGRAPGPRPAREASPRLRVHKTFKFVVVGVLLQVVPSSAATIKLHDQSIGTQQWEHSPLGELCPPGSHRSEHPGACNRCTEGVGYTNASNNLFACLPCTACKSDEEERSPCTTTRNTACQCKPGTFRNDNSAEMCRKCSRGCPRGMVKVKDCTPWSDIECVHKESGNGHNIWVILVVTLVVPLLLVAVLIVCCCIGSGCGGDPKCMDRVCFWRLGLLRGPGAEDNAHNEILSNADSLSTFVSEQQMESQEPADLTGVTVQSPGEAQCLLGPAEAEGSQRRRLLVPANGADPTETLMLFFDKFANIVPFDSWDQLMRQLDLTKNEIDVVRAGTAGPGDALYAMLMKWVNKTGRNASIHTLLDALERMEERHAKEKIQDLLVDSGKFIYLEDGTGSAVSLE


Target: T1, recombinant human TRAIL R1 (DR4)/Fc …
Assay: phage ELISA on DR4/Fc
Method: The remaining overnight culture was used to make a master stock plate by adding 100 μL of 50% glycerol to each well and storing at −80° C. The replica culture plate was grown at 37° C. with shaking at 250 rpm for approximately 2 hrs until the OD₆₀₀ was 0.5-0.7. The wells were then infected with K07 helper phage to 5×10⁹ pfu/mL mixed and incubated at 37° C. for 30 minutes without shaking, then incubated an addition 30 minutes at 37° C. with shaking at 250 rpm. The cultures were then spun down at 2500 rpm and 4° C. for 20 minutes. The supernatants were removed from the wells and the bacterial cell pellets were re-suspended in 500 μL of 2xYT containing 50 μg/mL carbenicillin and 50 μg/mL kanamycin. An air-permeable membrane was placed on the culture block and cells were grown overnight at room temperature with shaking at 250 rpm.
On day 3, cultures were spun down and supernatants containing the phage were blocked with 3% milk/PBS for 1 hr at room temperature. An initial Phage ELISA was performed using 75-100 ng of antigen bound per well. Non-specific binding was measured using 75-100 ng of human IgG1 Fc per well. DR4/Fc antigen (R&D Systems)-coated wells and IgG Fc coated wells were prepared fresh the night before by binding the above amount of antigen diluted in 100 μL of PBS per well. Antigen plates were incubated overnight at 4° C. then for 1 hour at 37° C., washed twice with PBS/0.05% Tween 20 and twice with PBS, and then blocked with 3% milk/PBS for 1 hr at 37° C. prior to the ELISA. Blocked phage were bound to blocked antigen-bound plates for 1 hr then washed twice with 0.05% Tween 20/PBS and then twice more with PBS. A HRP-conjugated anti-M13 secondary antibody diluted in 3% milk/PBS was then applied, with binding for 1 hr and washing as described above. The ELISA signal was developed using 90 μL TMB substrate mix and then stopped with 90 μL 0.2 M sulfuric acid, then ELISA plates were read at 450 nm. […] Secondary ELISA screens were performed similarly to the protocol detailed above.

| Binder | binding result |
| --- | --- |
| 064-40.1G9 (designed binder, on phage) ALQTVCLKGTKVHMKCFLAFTQTKTFHEASEDCISRGGTLSTPQTGSENDALYEYLRQSVGNEAEIWLGLNGWLSGVGWVDMTGARIAYKNWETEITAQPDGGWAHAWENCAVLSGAANGKWFDKRCRDQLPYICQFGIV | binds |
| 064-101.4B10 (designed binder, on phage) ALQTVCLKGTKVHMKCFLAFTQTKTFHEASEDCISRGGTLSTPQTGSENDALYEYLRQSVGNEAEIWLGLNQWVAFWSWVDMTGARIAYKNWETEITAQPDGGSAVSGENCAVLSGAANGKWFDKRCRDQLPYICQFGIV | binds |
| 064-40.2C7 (designed binder, on phage) ALQTVCLKGTKVHMKCFLAFTQTKTFHEASEDCISRGGTLSTPQTGSENDALYEYLRQSVGNEAEIWLGLNSYRLHYGWVDMTGARIAYKNWETEITAQPDGGRRWLGENCAVLSGAANGKWFDKRCRDQLPYICQFGIV | binds |
| 064-99.2H5 (designed binder, on phage) ALQTVCLKGTKVHMKCFLAFTQTKTFHEASEDCISRGGTLSTPQTGSENDALYEYLRQSVGNEAEIWLGLNGLLSDWWWVDMTGARIAYKNWETEITAQPDGGGNQSRENCAVLSGAANGKWFDKRCRDQLPYICQFGIV | binds |
| 064-40.2D9 (designed binder, on phage) ALQTVCLKGTKVHMKCFLAFTQTKTFHEASEDCISRGGTLSTPQTGSENDALYEYLRQSVGNEAEIWLGLNWQLYYRYWVDMTGARIAYKNWETEITAQPDGGVGCMVENCAVLSGAANGKWFDKRCRDQLPYICQFGIV | binds |
| 064-40.2G11 (designed binder, on phage) ALQTVCLKGTKVHMKCFLAFTQTKTFHEASEDCISRGGTLSTPQTGSENDALYEYLRQSVGNEAEIWLGLNGWLEGAGWVDMTGARIAYKNWETEITAQPDGGWQWRWENCAVLSGAANGKWFDKRCRDQLPYICQFGIV | binds |
| 064-40.2A10 (designed binder, on phage) ALQTVCLKGTKVHMKCFLAFTQTKTFHEASEDCISRGGTLSTPQTGSENDALYEYLRQSVGNEAEIWLGLNGVLQRGGWVDMTGARIAYKNWETEITAQPDGGPGGERENCAVLSGAANGKWFDKRCRDQLPYICQFGIV | binds |
| 064-40.1G11 (designed binder, on phage) ALQTVCLKGTKVHMKCFLAFTQTKTFHEASEDCISRGGTLSTPQTGSENDALYEYLRQSVGNEAEIWLGLNVARWLLKWVDMTGARIAYKNWETEITAQPDGGMCKPCENCAVLSGAANGKWFDKRCRDQLPYICQFGIV | binds |
| 064-101.4H1 (designed binder, on phage) ALQTVCLKGTKVHMKCFLAFTQTKTFHEASEDCISRGGTLSTPQTGSENDALYEYLRQSVGNEAEIWLGLNPYTSWGLWVDMTGARIAYKNWETEITAQPDGGVGGRGENCAVLSGAANGKWFDKRCRDQLPYICQFGIV | binds |
| 064-98.1G6 (designed binder, on phage) ALQTVCLKGTKVHMKCFLAFTQTKTFHEASEDCISRGGTLSTPQTGSENDALYEYLRQSVGNEAEIWLGLNGWLSGYGWVDMTGARIAYKNWETEITAQPDGGRVWSWENCAVLSGAANGKWFDKRCRDQLPYICQFGIV | binds |
| 064-40.2E10 (designed binder, on phage) ALQTVCLKGTKVHMKCFLAFTQTKTFHEASEDCISRGGTLSTPQTGSENDALYEYLRQSVGNEAEIWLGLNGYLDGVGWVDMTGARIAYKNWETEITAQPDGGQGCRWENCAVLSGAANGKWFDKRCRDQLPYICQFGIV | binds |

Target: T1, recombinant human TRAIL R1 (DR4)/Fc …
Assay: phage ELISA on DR4/Fc
Remark: another data set of the same source

| Binder | binding result |
| --- | --- |
| 119p83P1A3 (designed binder, on phage) ALQTVCLKGTKVHMKCFLAFTQTKTFHEASEDCISRGGTLSTPQTGSENDALYEYLRQSVGNEAEIWLGLNGWLEGVGWVDMTGARIAYKNWVAKDHEQPDGGWPFSNENCAVLSGAANGKWFDKRCRDQLPYICQFGIV | binds |
| 119p83P1A9 (designed binder, on phage) ALQTVCLKGTKVHMKCFLAFTQTKTFHEASEDCISRGGTLSTPQTGSENDALYEYLRQSVGNEAEIWLGLNGWLEGVGWVDMTGARIAYKNWVYRPGMQPDGGWPFSNENCAVLSGAANGKWFDKRCRDQLPYICQFGIV | binds |
| 119p83P1A7′ (designed binder, on phage) ALQTVCLKGTKVHMKCFLAFTQTKTFHEASEDCISRGGTLSTPQTGSENDALYEYLRQSVGNEAEIWLGLNGWLEGVGWVDMTGARIAYKNWYSWPKLQPDGGWPFSNENCAVLSGAANGKWFDKRCRDQLPYICQFGIV | binds |

Target: T2, DR4 (TRAIL-R1) on cancer cells
Assay: cell-based or functional assay

| Binder | Colo205 % killing (% of TRAIL activity) [%] | H2122 % killing (% of TRAIL activity) [%] | ST486 % killing (% of TRAIL activity) [%] |
| --- | --- | --- | --- |
| 71p88P1A1 (designed binder) EPPTQKPKKIVNAKKDVVNTKMFEELKSRLDTLAQEVALLKEQQALQTVCLKGTKVHMKCFLAFTQTKTFHEASEDCISRGGTLSTPQTGSENDALYEYLRQSVGNEAEIWLGLNGWMDGSGWVDMTGARIAYKNWETEITAQPDGGRLWRWENCAVLSGAANGKWFDKRCRDQLPYICQFGIV | -1 | -2 | 57 |
| 71p88P1D9 (designed binder) EPPTQKPKKIVNAKKDVVNTKMFEELKSRLDTLAQEVALLKEQQALQTVCLKGTKVHMKCFLAFTQTKTFHEASEDCISRGGTLSTPQTGSENDALYEYLRQSVGNEAEIWLGLNGWVAGVGWVDMTGARIAYKNWETEITAQPDGGGGWRWENCAVLSGAANGKWFDKRCRDQLPYICQFGIV | -21 | -3 | 28 |
| 71p88P1B9 (designed binder) EPPTQKPKKIVNAKKDVVNTKMFEELKSRLDTLAQEVALLKEQQALQTVCLKGTKVHMKCFLAFTQTKTFHEASEDCISRGGTLSTPQTGSENDALYEYLRQSVGNEAEIWLGLNGWLAGSGWVDMTGARIAYKNWETEITAQPDGGGGWPWENCAVLSGAANGKWFDKRCRDQLPYICQFGIV | 7 | 3 | 34 |
| 71p88P1B12 (designed binder) EPPTQKPKKIVNAKKDVVNTKMFEELKSRLDTLAQEVALLKEQQALQTVCLKGTKVHMKCFLAFTQTKTFHEASEDCISRGGTLSTPQTGSENDALYEYLRQSVGNEAEIWLGLNGWIEGAGWVDMTGARIAYKNWETEITAQPDGGWRSRWENCAVLSGAANGKWFDKRCRDQLPYICQFGIV | -10 | -1 | 26 |
| 71p88P1G11 (designed binder) EPPTQKPKKIVNAKKDVVNTKMFEELKSRLDTLAQEVALLKEQQALQTVCLKGTKVHMKCFLAFTQTKTFHEASEDCISRGGTLSTPQTGSENDALYEYLRQSVGNEAEIWLGLNGWMAGVGWVDMTGARIAYKNWETEITAQPDGGPGLRWENCAVLSGAANGKWFDKRCRDQLPYICQFGIV | 1 | 4 | 45 |
| 71p88P1B4 (designed binder) EPPTQKPKKIVNAKKDVVNTKMFEELKSRLDTLAQEVALLKEQQALQTVCLKGTKVHMKCFLAFTQTKTFHEASEDCISRGGTLSTPQTGSENDALYEYLRQSVGNEAEIWLGLNGWLEGYGWVDMTGARIAYKNWETEITAQPDGGAERAWENCAVLSGAANGKWFDKRCRDQLPYICQFGIV | -25 | -5 | -15 |
